B1: C33B904 hIgG1 (antibody, V domains shown)
VH: EVQLVESGGGLVQPGRSLRLSCAASGFTFDDYAMHWVRQAPGKGLEWVSGIGWSGGSIVYADSVKGRFTISRDNAKNSLYLQMNSLRAEDTALYYCAKDSPYGDFFDYWGQGTLVTVSS
VL: DIVMTQSPDSLAVSLGERATINCKSSQTVFYSSNNKNYLAWYQQKPGQPPKLLISWASTRKSGVPDRFSGSGSGTDFTLTVSSLQAEDVAVYYCQHYYSTPYTFGQGTKLEIKR
notes: intact human IgG1; variable regions from US20190382481A1; also called C33B3904; C331B904
B2: C33B904 (antibody, human IgG1, kappa, V domains shown)
VH: B1 VH
VL: B1 VL
notes: control antibody, intact human IgG1 form; variable regions from US20190382481A1; also called C33B904 hIgG1; C331B904

Experiments:
[1] = target: T1, human CD33-His (extracellular domain Asp 18-His 259) (human, UniProt P20138 18-259); assay: competitive ELISA vs coated S006-NB146-3 2ug/mL; soluble 25ug/ml
T1 construct: range 18-259; bought protein; also called hCD33-his; human CD33 protein; not shown: His tag
T1 sequence (P20138 18-259 limits assumed): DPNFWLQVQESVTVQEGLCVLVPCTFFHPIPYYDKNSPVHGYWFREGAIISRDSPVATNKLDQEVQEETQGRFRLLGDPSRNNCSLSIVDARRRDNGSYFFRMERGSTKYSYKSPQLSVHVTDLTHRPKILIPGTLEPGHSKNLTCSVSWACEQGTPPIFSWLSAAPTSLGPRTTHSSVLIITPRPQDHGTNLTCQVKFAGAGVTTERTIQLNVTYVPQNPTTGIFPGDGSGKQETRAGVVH
Procedure: VHH antibodies and control antibodies with known epitopes were subjected to epitope classification with competitive ELISA. ELISA plates were coated with 2 μg/mL antibodies according to the method in Example 5.1; the human CD33-his protein was subjected to a gradient dilution from 30 μg/mL, and EC80 values (Tables 26-27) were calculated. ELISA plates were coated with 2 μg/mL antibodies; after 25 µg/mL of antibodies to be tested were added, a human CD33-his protein having an EC80 concentration corresponding to each of the antibodies to be tested was then added for incubation for 2 h. The plates were washed 5 times with PBS, then HRP-labeled anti-His antibodies (purchased from GenScript, Cat. No. A00612) were added for incubation for 1 h, and the plates were washed 5 times. A TMB substrate was added at 50 μL/well and incubated at room temperature for 10 min, then a stop solution (1.0 M HCl) was added at 50 μL/well. OD_{450 nm} values were read using an ELISA plate reader (Insight, purchased from PerkinElmer), and the competition rate between the antibodies was calculated according to the OD_{450 nm} values using a formula. The results are shown in FIGS. 12A-12B, the higher the value of the competition rate, the closer the epitopes to which two antibodies bind.

[2] = target: T1, human CD33-His (extracellular domain …); assay: competitive ELISA vs coated S006-NB146-173 3ug/mL; soluble 25ug/ml
[3] = target: T1, human CD33-His (extracellular domain …); assay: ELISA on coated human CD33-his
Procedure: In order to assay the binding activity of VHH-Fc to human CD33 protein, a human CD33-his protein (purchased from ACROBiosystems, Cat. No. CD3-H5226) was diluted with PBS to make a final concentration of 2 μg/mL, and then added into a 96-well ELISA plate at 100 μL/well. The plate was sealed with a plastic film and incubated at 4° C. overnight, washed twice with PBS the next day, and a blocking solution [PBS+2% (w/w) BSA] was added for blocking at room temperature for 2 h. The blocking solution was discarded, and VHH-Fc antibody or negative control antibody serially diluted from 100 nM was added at 50 μL/well. After incubation at 37° C. for 2 h, the plate was washed 3 times with PBS. A secondary antibody labeled with HRP (horseradish peroxidase) (purchased from Sigma, Cat. No. A0170) was added. After incubation for 1 h at 37° C., the plate was washed 5 times with PBS. A TMB substrate was added at 50 μL/well. After incubation at room temperature for 10 min, a stop solution (1.0 N HCl) was added at 50 μL/well. The OD450 nm values were read on an ELISA plate reader (Multimode Plate Reader, EnSight, purchased from Perkin Elmer). The assay results for the binding of the VHH-Fc to hCD33-his by ELISA are shown in FIGS. 7A and 7B and Tables 11 and 12. […] The IgG control was hIgG1, and the data in the table are OD450 nm values. […]

human CD33-V-his = target: T2, human CD33-V-his (human, UniProt P20138 18-144); assay: ELISA on coated human CD33-V-his
T2 construct: expressed in HEK293E; also called hCD33-V-his; human CD33 protein V-domain; not shown: His tag
T2 sequence (P20138 other isoform, or with tags, fused parts or gaps limits assumed): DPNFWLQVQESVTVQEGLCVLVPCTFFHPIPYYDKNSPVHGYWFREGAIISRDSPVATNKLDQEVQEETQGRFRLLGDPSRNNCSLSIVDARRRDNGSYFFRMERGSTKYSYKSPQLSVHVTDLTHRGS

human CD33-C2-his = target: T3, human CD33-C2-his (human, UniProt P20138 136-260); assay: ELISA on coated human CD33-C2-his
T3 construct: expressed in HEK293E; also called hCD33-C2-his; human CD33 protein C2-domain; not shown: His tag
T3 sequence (P20138 other isoform, or with tags, fused parts or gaps limits assumed): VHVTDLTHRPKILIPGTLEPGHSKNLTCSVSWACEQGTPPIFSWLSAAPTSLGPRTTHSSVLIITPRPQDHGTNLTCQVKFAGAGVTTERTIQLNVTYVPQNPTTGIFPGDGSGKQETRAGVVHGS
Excerpt: Plates were coated with human CD33-V-his (membrane distal end) and human CD33-C2-his (membrane proximal end), respectively, according to the ELISA method in Example 8. The VHH humanized antibodies were classified based on the membrane distal end and the membrane proximal end, as shown in FIGS. 20A-20J and Table 44, which allowed the classification of the VHH humanized antibodies into the following classes: […]

[4] = target: T1, human CD33-His (extracellular domain …); assay: competitive ELISA vs coated S006-NB146-150 3ug/mL; soluble 25ug/ml
human CD33-his protein [5] = target: T4, human CD33-his protein (human, UniProt P20138 18-259); assay: competition ELISA, coated human CD33-his, vs Biotin-C33B904 at EC80; antibody 62.50 nM
T4 construct: range 18-259; bought protein; also called hCD33-his; recombinant human CD33-his; not shown: His tag
T4 sequence (P20138 18-259 limits assumed): as the sequence (P20138 18-259 limits assumed) above
Procedure: (§1) ELISA plates were coated with 2 μg/mL human CD33-his protein according to the method in Example 5.1; the Biotin-C331B904 antibody was subjected to a gradient dilution from 15 μg/mL, and EC80 values (0.18 μg/mL) were calculated. ELISA plates were coated with 2 μg/mL human CD33-his protein; starting from 40 μg/mL, the VHH antibodies to be tested were diluted in a 1:2 dilution ratio to obtain seven concentrations and added to the ELISA plates, and then Biotin-C331904 antibodies with the EC80 concentrations were added for incubation for 2 h. The plates were washed 5 times with PBS and then […] (purchased from Sigma, Cat. No. S2438) were added for incubation for 1 h, and the plates were washed 5 times. A TMB substrate was added at 50 μL/well and incubated at room temperature for 10 min, then a stop solution (1.0 M HCl) was added at 50 μL/well. OD_{450 nm} values were read using an ELISA plate reader (Insight, purchased from PerkinElmer). Then, analysis was performed by software (GraphPad Prism8), and data were fitted for curve plotting. The results are shown in FIGS. 13A-13B and Tables 28 and 29.

human CD33-his protein [6] = target: T4, human CD33-his protein; assay: competition ELISA, coated human CD33-his, vs Biotin-C33B904 at EC80; antibody 0 nM (no competitor)
Procedure: as §1

human CD33-his protein [7] = target: T4, human CD33-his protein; assay: competition ELISA, coated human CD33-his, vs Biotin-C33B904 at EC80; antibody 7.81 nM
Procedure: as §1

Row | Binder | inhibition rate [1] [%] | inhibition rate [2] [%] | EC50 (read off the curve) [3] [nM] | binding result (human CD33-V-his) | EC50 (read off the curve) (human CD33-C2-his) [nM] | inhibition rate [4] [%] | OD450 (Biotin-C33B904 signal) (human CD33-his protein [5]) | OD450 (Biotin-C33B904 signal) (human CD33-his protein [6]) | OD450 (Biotin-C33B904 signal) (human CD33-his protein [7])
1 | B1 | -9 | 100 | ~0.3 | no binding (tested: 100 nM) | ~0.1 | 100 | – | – | –
2 | B2 | – | – | – | – | – | – | 0.32 | 2.35 | 1.11

— US20240124575A1 (SIMCERE ZAIMING PHARMACEUTICAL, published 2024)
